{"source": "the supplement of paper PMC9170038", "test_system": "MS2 coat protein", "test": "apparent KD of MS2 coat protein; designed switch direction (-1 OFF switch, 1 ON switch): -1; higher = weaker reporter binding", "procedure,_shortened": "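Apparent KD, taken as the median over clusters for each design, was obtained by curve-fitting normalised cluster fluorescence. Designed RNA switches had been transcribed on Illumina chips by stalled E. coli RNA polymerase and titrated with SNAP-549-labelled MS2 coat protein, doubling from 0.7 or 1.5 nM to 3 µM.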", "key": {"[1]": {"conditions": "Eterna round: R95, input ligand: microRNA oligo, concentration not stated"}, "[2]": {"conditions": "Eterna round: R95, input ligand: FMN 200 uM"}, "[3]": {"conditions": "Eterna round: R95, input ligand: none"}, "[4]": {"conditions": "input ligand: microRNA oligo, concentration not stated"}}}
{"sequence": "GGACGGAUAGGAUAUACAUGAGGAUCACCCAUGUGAACCCAGCAGAGGCUUCUUUGCAGUAGAAGGGUCCUUUA [Eternabot (Original) Solution 43] (Eterna round: R97, puzzle: Exclusion 3)", "values": [{"measurement": "apparent KD of MS2 coat protein", "setting": "input ligand: FMN 200 uM", "result": 53.5, "unit": "nM"}, {"measurement": "apparent KD of MS2 coat protein", "setting": "input ligand: none", "result": 47.5, "unit": "nM"}]}
{"sequence": "GAUAUAGAGCAGGAUAUCUUAGAUAUGUAAUAAAGAGAAGGGCUCACAUGAGGAUCACCCAUGUGGUCCUAGAU [JL Dibiri mod 13] (puzzle: Exclusion 6)", "values": [{"measurement": "apparent KD of MS2 coat protein", "setting": "[1]", "result": 20.7, "unit": "nM"}]}
{"sequence": "CAAAACCUAGGAUAUACAUGAGGAUCACCCAUGUCGGGCCUACGCGAAACGCGCCUCAGUAGAAGGAGGGAAAC [Riri] (puzzle: Exclusion 3)", "values": [{"measurement": "apparent KD of MS2 coat protein", "setting": "[2]", "result": 180, "unit": "nM"}, {"measurement": "apparent KD of MS2 coat protein", "setting": "[1]", "result": 46.8, "unit": "nM"}, {"measurement": "apparent KD of MS2 coat protein", "setting": "[3]", "result": 70.5, "unit": "nM"}]}
{"sequence": "AAGGGACAUGAGGAUCACCCAUGUCAGGAUAUUAGUGUGAGUCACCUUGUGAAUACACUAAGAAGGGAUAGAAA [Eternabot (Original) Solution 38] (Eterna round: R97, puzzle: Exclusion 1)", "values": [{"measurement": "apparent KD of MS2 coat protein", "setting": "input ligand: FMN 200 uM", "result": 69.8, "unit": "nM"}, {"measurement": "apparent KD of MS2 coat protein", "setting": "input ligand: none", "result": 84.5, "unit": "nM"}]}
{"sequence": "GGAUCUACUGAGGAUAUUAUAUCACCCGACUGAUAAGAAGGCAGUACAUGAGGAUCACCCAUGUGGGUAGCCAC [Polaris7] (Eterna round: R97, puzzle: Exclusion 6)", "values": [{"measurement": "apparent KD of MS2 coat protein", "setting": "input ligand: FMN 200 uM", "result": 79.6, "unit": "nM"}, {"measurement": "apparent KD of MS2 coat protein", "setting": "input ligand: none", "result": 99.4, "unit": "nM"}]}
{"sequence": "AGCAGACGAGGAUAUAGAUUUGAUAACAUGAGGAUCACCCAUGUGAUCGAUAGAUCAGAUUUAGAAGGCGUCUGCU [E5/8-A1] (Eterna round: R97, puzzle: Exclusion 5)", "values": [{"measurement": "apparent KD of MS2 coat protein", "setting": "input ligand: FMN 200 uM", "result": 412, "unit": "nM"}, {"measurement": "apparent KD of MS2 coat protein", "setting": "input ligand: none", "result": 525, "unit": "nM"}]}
{"sequence": "UACACUGCAUGAGGAUCAAACAUGAGGAUCACCCAUGUGUAGCAAGCUUUUUGCUCGUCUUAUAAAUAUGUAGUGUA [Electric Eye 10 - Jieux - Sensor, turn-off variant 1] (Eterna round: R97, puzzle: Sensor, turn-off variant 1)", "values": [{"measurement": "apparent KD of MS2 coat protein", "setting": "input ligand: FMN 200 uM", "result": 13.4, "unit": "nM"}, {"measurement": "apparent KD of MS2 coat protein", "setting": "input ligand: none", "result": 12.9, "unit": "nM"}]}
{"sequence": "CCCACAAGCUUUUUGCUCGACAUGAGGAUCACCCAUGUAAAAUGGGUUAUAUAUAUAUGAAACAUAUAUAUAUACCU [-21.6, -47.5 kcal, A 35%] (Eterna round: R97, puzzle: Sensor, turn-off variant 1)", "values": [{"measurement": "apparent KD of MS2 coat protein", "setting": "input ligand: FMN 200 uM", "result": 43.9, "unit": "nM"}, {"measurement": "apparent KD of MS2 coat protein", "setting": "input ligand: none", "result": 47.6, "unit": "nM"}]}
{"sequence": "UUCCCACAUGAGGAUCACCCAUGUGAGGAUAUGGGCGGCGCCGCAAAAGCGGCGCCGCCCAGAAGGCGCAUGAU [Malcxlusion 8 - Jieux - Exclusion 1] (Eterna round: R97, puzzle: Exclusion 1)", "values": [{"measurement": "apparent KD of MS2 coat protein", "setting": "input ligand: FMN 200 uM", "result": 21.6, "unit": "nM"}, {"measurement": "apparent KD of MS2 coat protein", "setting": "input ligand: none", "result": 18.4, "unit": "nM"}]}
{"sequence": "GCAUCACAUGUCAGGAUAUGCUGUACCUUGGUACAGCAGAAGGGACAUGAGGAUCACCCAUGUGCCUAUGAUGC [JL-BMX4-4.11] (Eterna round: R97, puzzle: Brourd's mod of Exclusion 4)", "values": [{"measurement": "apparent KD of MS2 coat protein", "setting": "input ligand: FMN 200 uM", "result": 555, "unit": "nM"}, {"measurement": "apparent KD of MS2 coat protein", "setting": "input ligand: none", "result": 59.3, "unit": "nM"}]}
{"sequence": "AAUUCGCAAGCGAGAUCCCACAUGAGGAUCACCCAUGUGCUCGUCUUAUAAGGUACUGUGACGAAAGUCACGGUACC [Mat - Sensor, turn-off var - Eli Mod - D85] (Eterna round: R97, puzzle: Sensor, turn-off variant 1)", "values": [{"measurement": "apparent KD of MS2 coat protein", "setting": "input ligand: FMN 200 uM", "result": 16.2, "unit": "nM"}, {"measurement": "apparent KD of MS2 coat protein", "setting": "input ligand: none", "result": 17.1, "unit": "nM"}]}
{"sequence": "GACGACUCGUCAGGAUAUGUAAACGAGCAAUUGACAGAAGGGACACUGUCGAGGGUACACAUGAGGAUCACCCAUGUACUCGUC [Eternabot solution 40] (Eterna round: R96, puzzle: Exclusion NG 1)", "values": [{"measurement": "apparent KD of MS2 coat protein", "setting": "input ligand: FMN 200 uM", "result": 12.4, "unit": "nM"}, {"measurement": "apparent KD of MS2 coat protein", "setting": "[4]", "result": 10.3, "unit": "nM"}, {"measurement": "apparent KD of MS2 coat protein", "setting": "input ligand: none", "result": 16.1, "unit": "nM"}]}
{"sequence": "GUAGAGUCAGGAUAUACGAGAUCGAAAGAUCGGCGGUCCUUACAUGAGGAUCACCCAUGUAGAAGGGACUCUAC [Omei mod 6 to Eli's favorate candidate (ch.parushev)] (Eterna round: R97, puzzle: Exclusion 2)", "values": [{"measurement": "apparent KD of MS2 coat protein", "setting": "input ligand: FMN 200 uM", "result": 258, "unit": "nM"}, {"measurement": "apparent KD of MS2 coat protein", "setting": "input ligand: none", "result": 71.3, "unit": "nM"}]}
{"sequence": "UAUAUAUAGUAAGGAUAUGUAUUAAUUUUGUAAACAGAAGGUACUGACAUGAGGAUCACCCAUGUUUUAGUGUGGGCAUGUAGA [JMF's solution 87] (Eterna round: R96, puzzle: Exclusion NG 1)", "values": [{"measurement": "apparent KD of MS2 coat protein", "setting": "[4]", "result": 111, "unit": "nM"}]}
{"sequence": "AAUAACAAGUAGGAUCCUAACAUGAGGAUCACCCAUGUGCUCGUCUUAUAAAGUACUAUCACGAAAGUGAUAGUACA [Sensor 3, v1 - 53] (puzzle: Sensor v3, turn-off variant 1)", "values": [{"measurement": "apparent KD of MS2 coat protein", "setting": "[2]", "result": 44.4, "unit": "nM"}, {"measurement": "apparent KD of MS2 coat protein", "setting": "[1]", "result": 64.2, "unit": "nM"}, {"measurement": "apparent KD of MS2 coat protein", "setting": "[3]", "result": 83.5, "unit": "nM"}]}
{"sequence": "AGAGUGUGAGGAUAUAUGGUGAAGAUGAAGAAAGAGAAGGAGUAGAAGGUACAUGAGGAUCACCCAUGUUGAGG [JR_Exclu4_Sub071] (puzzle: Exclusion 4)", "values": [{"measurement": "apparent KD of MS2 coat protein", "setting": "[2]", "result": 44.8, "unit": "nM"}, {"measurement": "apparent KD of MS2 coat protein", "setting": "[1]", "result": 47.8, "unit": "nM"}, {"measurement": "apparent KD of MS2 coat protein", "setting": "[3]", "result": 45.5, "unit": "nM"}]}
{"sequence": "CUCGUGUGAGGAUAUCCUCUUAUAUAACAAAGGUUGAAGCAGGAGAAGGCACAUGAGGAUCACCCAUGUGCAUA [EX4 C.6] (Eterna round: R97, puzzle: Exclusion 4)", "values": [{"measurement": "apparent KD of MS2 coat protein", "setting": "input ligand: FMN 200 uM", "result": 46.4, "unit": "nM"}, {"measurement": "apparent KD of MS2 coat protein", "setting": "input ligand: none", "result": 16.9, "unit": "nM"}]}
{"sequence": "UUGUUCCGUGUAGGAUAUUGGCCUCCCUCGGGCCGAGAAGGACAUGAGGAUCACCCAUGUAUGCUAUUAUCGCGCGUGGCGCAC [Design 94] (Eterna round: R96, puzzle: Exclusion NG 1)", "values": [{"measurement": "apparent KD of MS2 coat protein", "setting": "input ligand: FMN 200 uM", "result": 330, "unit": "nM"}, {"measurement": "apparent KD of MS2 coat protein", "setting": "[4]", "result": 23.1, "unit": "nM"}, {"measurement": "apparent KD of MS2 coat protein", "setting": "input ligand: none", "result": 25.2, "unit": "nM"}]}
{"sequence": "CUCGUGCAGCAAAGCUGUACGAGUACAUGAGGAUCACCCAUGUAGGAUAUGGUACGCAAAGCGUGCUAGAAGGAUAUGUGUAGG [Mat - Exclusion NG 3 - Mod of JL - D87] (Eterna round: R96, puzzle: Exclusion NG 3)", "values": [{"measurement": "apparent KD of MS2 coat protein", "setting": "input ligand: FMN 200 uM", "result": 61.5, "unit": "nM"}, {"measurement": "apparent KD of MS2 coat protein", "setting": "[4]", "result": 32.7, "unit": "nM"}, {"measurement": "apparent KD of MS2 coat protein", "setting": "input ligand: none", "result": 50.5, "unit": "nM"}]}
{"sequence": "CUUCGACAUGAGGAUCACCCAUGUCAGGAUAUUGUGUAUCGGGUUUUUUACGGAAAGGCAAGAAGGGAUGUGUG [LRO-Excl1-07] (puzzle: Exclusion 1)", "values": [{"measurement": "apparent KD of MS2 coat protein", "setting": "[1]", "result": 25.4, "unit": "nM"}]}
{"sequence": "UAUUGCAAGUGAGGAUAUGACAUGAGGAUCACCCAUGUAAAGGGAGUUGGCUAUAUAGCAAGAUUUCAGAAGGCACUACUGUAU [JR_ExcNG2_Sub006] (Eterna round: R96, puzzle: Exclusion NG 2)", "values": [{"measurement": "apparent KD of MS2 coat protein", "setting": "input ligand: FMN 200 uM", "result": 133, "unit": "nM"}, {"measurement": "apparent KD of MS2 coat protein", "setting": "[4]", "result": 32.6, "unit": "nM"}, {"measurement": "apparent KD of MS2 coat protein", "setting": "input ligand: none", "result": 56.3, "unit": "nM"}]}
{"sequence": "CCGUAGUCAGGAUAUACAUGAGGAUCACCCAUGUAAAAUUUUAAUUUAAUUUGAAGGUGUAGAAGGGACCAGCC [Ex3 #28] (Eterna round: R97, puzzle: Exclusion 3)", "values": [{"measurement": "apparent KD of MS2 coat protein", "setting": "input ligand: FMN 200 uM", "result": 33.5, "unit": "nM"}, {"measurement": "apparent KD of MS2 coat protein", "setting": "input ligand: none", "result": 35.6, "unit": "nM"}]}
{"sequence": "UCGUUCCGUGUAGGAUAUUGGCCUCCCUCGGGCCGAGAAGGACAUGAGGAUCACCCAUGUAUGUUAUUAUCGCGCGUGGCGCAU [Design 89] (Eterna round: R96, puzzle: Exclusion NG 1)", "values": [{"measurement": "apparent KD of MS2 coat protein", "setting": "input ligand: FMN 200 uM", "result": 113, "unit": "nM"}, {"measurement": "apparent KD of MS2 coat protein", "setting": "[4]", "result": 14.5, "unit": "nM"}, {"measurement": "apparent KD of MS2 coat protein", "setting": "input ligand: none", "result": 20.8, "unit": "nM"}]}
{"sequence": "GUGAAGUAAGGAUAUAGUGGAAAAGAUAAGGUAUGAGAGUUCUAGAAGGUACAUGAGGAUCACCCAUGUUAGGG [JR_Exclu4_Sub085] (puzzle: Exclusion 4)", "values": [{"measurement": "apparent KD of MS2 coat protein", "setting": "[1]", "result": 267, "unit": "nM"}]}
{"sequence": "AAGAAACAUGAGGAUCACCCAUGUGAGGAUAUAGAAAAGAAAGAAAGAAAGAAAGAAACUAGAAGGCACAAAGA [It's All Mine] (puzzle: Exclusion 1)", "values": [{"measurement": "apparent KD of MS2 coat protein", "setting": "[2]", "result": 24.6, "unit": "nM"}, {"measurement": "apparent KD of MS2 coat protein", "setting": "[1]", "result": 39.2, "unit": "nM"}, {"measurement": "apparent KD of MS2 coat protein", "setting": "[3]", "result": 26.1, "unit": "nM"}]}
